Experimental data as given in publication PMC12315501 (2025).

Target: recombinant NbRab‐G3c protein (Nicotiana benthamiana)
Experiment: ITC

B1: recombinant Pi17063 protein (natural protein)
chain: ASADSNERLVRAVYSTVRSRDLATDDGPKHTKRFLRGESSKIVNLKQEEGVFEERKGVSQKLTKALQAIKARYLKWEQKVLVPGFKKMAEKGVTYSELRDTFRVRMMNSGRWGTPSGFKRYARLYSEWLHRTGRSHLAK
  Kd: 1.48 µM
